# Assay results as given in patent publication US20250382354A1.
# Experiments:
# Test in all cases: peptide ELISA
# [1] = biological target: SARS-CoV FP peptide (SARS-CoV), P59594
# [2] = biological target: Hu_PDCoV FP peptide (Hu_PDCoV)
# [3] = biological target: MERS FP peptide (MERS), K9N5Q8
# [4] = biological target: OC43 FP peptide (OC43), P36334
# HKU1 FP peptide (HKU1) = biological target: HKU1 FP peptide (HKU1)
# 229E FP peptide (229E) = biological target: 229E FP peptide (229E)
# [5] = biological target: SARS-CoV-2 FP peptide (SARS-CoV-2)
# [6] = biological target: NL63 FP peptide (NL63), Q6Q1S2
# [7] = biological target: FCoV-KU2 FP peptide (FCoV-KU2)
# [8] = biological target: HKU5 HR2 peptide (HKU5), A3EXD0
# MHV HR2 peptide (MHV) = biological target: MHV HR2 peptide (MHV)
# [9] = biological target: SARS-CoV-2 HR2 peptide (SARS-CoV-2), P0DTC2
# SADS HR2 peptide (SADS) = biological target: SADS HR2 peptide (SADS)
# [10] = biological target: HKU4 HR2 peptide (HKU4), A3EX94
Binder,EC50 [1] [µg/mL],EC50 [2] [µg/mL],EC50 [3] [µg/mL],EC50 [4] [µg/mL],EC50 (HKU1 FP peptide (HKU1)) [µg/mL],EC50 (229E FP peptide (229E)) [µg/mL],EC50 [5] [µg/mL],EC50 [6] [µg/mL],EC50 [7] [µg/mL],EC50 [8] [µg/mL],EC50 (MHV HR2 peptide (MHV)) [µg/mL],EC50 [9] [µg/mL],EC50 (SADS HR2 peptide (SADS)) [µg/mL],EC50 [10] [µg/mL]
"fp.004 (antibody, V domains shown) VH: VQLVESGGGVVQPGTSLRLSCVASGFTFSNYAMHWVRQAPGKGLEWVAIISFDTRNTASAASVKGRFNISRDNSKNSLYLQMNSLRPEDTGVYYCARDLFLSDYDSRGYDPITGGFDCWGQGTLVTVSS VL: EIVMTQSPAALSVSPGEGATLSCRASQSVGSRLAWYQQKLGRPPRLLIYGASTRATGIPARFSGSGSGTEFTLTISSLQSEDFAVYYCQQYNDWPLLTFGGGTKVKIK",0.03,0.0343,0.0386,0.0222,0.0272,0.0202,0.0352,0.0267,,,,,,
"fp.002 (antibody, V domains shown) VH: VQLVESGGGVVQPGTSLRLSCAGSGFNFDNYAIHWVRQAPGQGLEWVAIISYEARNKKYAGSVTGRFSISRDNSKSMVYLQMDSLRGEDTAVYYCARDLFLSDYDRSGYDPTRGGFDLWGQGTLVTVSS VL: EIVMTQSPATLSVSPGERATLSCRASQSVSSSLAWYQHKLGQAPRLLIYGASTRATGIPGRFSGSGSGTEFTLTISSLQSEDVAIYYCQQYGDWPLVTFGGGTKVEIK",0.0285,0.0215,0.0358,0.0211,0.0256,0.0176,0.032,0.0245,,,,,,
"fp.006 (antibody, V domains shown) VH: VQLVESGGGVVQPGGSLRLSCAASGFNFNNYALHWVRQAPGKGLEWVAIISYEARNKKYGVSVMGRFSISRDNSKSIMYLEMNSLRVEDTGVYYCARDLFLSDYDRSGYDPTRGGFDHWGQGTLVTVSS VL: EIVMTQSPATLSVSPGERATLSCRASQSVSSSLAWYQHRFGQAPRLLISGASTRATGIPGRFSGSGSGTEFTLTISSLQSEDVAVYYCQQYGDWPLVTFGGGTKVEIK",0.0157,,0.0228,0.0134,0.0168,0.0121,0.0331,0.0144,0.0149,,,,,
"fp.005 (antibody, V domains shown) VH: VQLVESGGGVVQPGNSLRLSCAASGFRFNNYAMHWVRQAPGKGLEWVAIISYEARNEKYADSVKGRFSISRDNAKNTLYLQMNSLRADDTGVYYCARDLFLSDYDTSGYDRTRGGFDYWGQGALVTVSS VL: EIVMTQSPATLSVSPGERATLSCRASQSVSNGLAWYQHRFGQPPRLLIYGASTRATGIPTRFSGSGSGTEFTLTISSLQSEDFAVYYCQQYDDWPLITFGGGTKVEIK",,,0.04,0.0244,,0.0175,0.0295,0.0231,0.028,,,,,
"fp.003 (antibody, V domains shown) VH: VQLVESGGGVVQPGTSLRLSCTASGFSFSNYAMHWVRQAPGKGLEWVAIISFDTRNKEFADSVKGRFSISRDNSKNSLNLQMNSLRPEDTGVYYCARDLFLSDYDSRGYEPSRGGFDYWGQGTLVTVSS VL: EIVMTQSPATLSVSPGERATLSCRASQSVSSSLAWYQQKLGQPPRLLIYGASTRATGIPARFSGSGSGTEFTLTISSLKSEDSAVYYCQQYNDWPLLSFGGGTKVEIK",0.0285,,0.0349,0.0149,0.0238,0.0201,0.0369,0.0249,0.0295,,,,,
"hr2.015 (antibody, V domains shown) VH: QVQLVQSGAEVKKPGASVKVSCKASGYTFSSYYVNWVRQAPGQGLEWLGIINRSGSSTIYAQKFQGRVTMTRDTSTSTVYLELSSLRSEDTAVYYCARDQDHALHWGQGTLVTVSS VL: QSVLTQPPSVSAAPGQKVTISCSGSSSNIGSNYVSWYQQLPGTAPKLLIYDNSERPSGIPDRFSGSRSGTSATLGITGLQTGDEADYYCGTWDTSLSAWVFGGGTKLTVL",,,,,,,,,,0.0467,0.0543,0.047,0.0731,0.05
